B1: biotinylated recombinant HBsAg particles, which only contain S protein (b-rHBsAg) (other)
chain: MENITSGFLGPLLVLQAGFFLLTRILTIPQSLDSWWTSLNFLGGSPVCLGQNSQSPTSNHSPTSCPPICPGYRWMCLRRFIIFLFILLLCLIFLLVLLDYQGMLPVCPLIPGSTTTSTGPCKTCTTPAQGNSMFPSCCCTKPTDGNCTCIPIPSSWAFAKYLWEWASVRFSWLSLLVPFVQWFVGLSPTVWLSAIWMMWYWGPSLYSIVSPFIPLLPIFFCLWVYI
modifications: biotinylated on lysine residues (the three lysine residues which can become biotinylated all lie in the major antigenic region of the S protein; positions 122 and 141 are named)
notes: domain: S protein; Multimeric virus-like particle with lipid; also called biotinylated rHBsAg
B2: recombinant soluble CD14 (receptor)
chain: TTPEPCELDDEDFRCVCNFSEPQPDWSEAFQCVSAVEVEIHAGGLNLEPFLKRVDADADPRQYADTVKALRVRRLTVGAAQVPAQLLVGALRVLAYSRLKELTLEDLKITGTMPPLPLEATGLALSSLRLRNVSWATGRSWLAELQQWLKPGLKVLSIAQAHSPAFSCEQVRAFPALTSLDLSDNPGLGERGLMAALCPHKFPAIQNLALRNTGMETPTGVCAALAAAGVQPHSLDLSHNSLRATVNPSAPRCMWSSALNSLNLSFAGLEQVPKGLPAKLRVLDLSCNRLNRAPQPDELPEVDNLTLDGNPFLVPGTALPHEGSMNSGVVPACARSTLSVGVSGTLVL
notes: also called sCD14; recombinant sCD14

Legend:
human CD14 (human) = human CD14 (human) (UniProt P08571); test: flow cytometry, hCD14-CHO cells, FITC-labelled mAb
mouse CD14 (mouse) = mouse CD14 (mouse) (UniProt P10810); test: flow cytometry, mCD14-CHO cells, FITC-labelled mAb
mouse CD14 (mouse), sequence (P10810 16-336): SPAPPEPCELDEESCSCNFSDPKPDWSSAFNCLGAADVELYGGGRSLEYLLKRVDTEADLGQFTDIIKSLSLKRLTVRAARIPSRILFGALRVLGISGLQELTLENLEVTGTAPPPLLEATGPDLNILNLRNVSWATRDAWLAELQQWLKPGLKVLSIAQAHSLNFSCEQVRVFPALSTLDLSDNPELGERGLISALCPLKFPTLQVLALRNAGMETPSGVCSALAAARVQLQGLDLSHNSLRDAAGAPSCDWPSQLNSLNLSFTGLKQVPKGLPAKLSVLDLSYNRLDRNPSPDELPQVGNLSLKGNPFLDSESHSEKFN

[1] = biological target: T1, human CD14 with amino acids 39, 40, 41, 43 and 44 substituted with alanine (mut6) (human, UniProt P08571 20-345); test: flow cytometry on CHO cells transfected with mut6, 2% HS-HBSS, Strep-PE
T1 construct: whole, on cells; The positions count on the mature protein (add 19 for the precursor entry); also called CD14mut6; CHO-Mut6
T1 sequence (looked up): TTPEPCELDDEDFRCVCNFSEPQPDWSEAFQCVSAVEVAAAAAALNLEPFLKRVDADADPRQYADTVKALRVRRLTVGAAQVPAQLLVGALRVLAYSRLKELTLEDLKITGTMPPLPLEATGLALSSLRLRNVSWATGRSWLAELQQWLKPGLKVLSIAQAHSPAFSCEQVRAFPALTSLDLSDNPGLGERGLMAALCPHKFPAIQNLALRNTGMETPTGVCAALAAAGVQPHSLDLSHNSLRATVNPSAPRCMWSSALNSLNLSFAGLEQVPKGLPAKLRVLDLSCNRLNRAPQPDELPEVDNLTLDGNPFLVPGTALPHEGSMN

[2] = biological target: B1; test: flow cytometry competition; b-rHBsAg pre-incubated with recombinant sCD14 in 2% HS-HBSS, then binding to monocytes of PBMC

**Q.** Which results are given for “Mouse anti-human CD14 (clone M(P9)) (antibody)”?
**A.** Median Fluorescence (human CD14 (human)): 502; Median Fluorescence (mouse CD14 (mouse)): 0

**Q.** Which Median Fluorescence (human CD14 (human)) does the source give for “Mouse anti-human CD14 (clone My4) (antibody)” here?
**A.** 291

**Q.** What about the Median Fluorescence (mouse CD14 (mouse)) of the same molecule?
**A.** 0.12

**Q.** “Rat anti-mouse CD14-FITC (clone rmC5-3, IgG1) (antibody)” was tested. Which Median Fluorescence (human CD14 (human)) did it give?
**A.** 0

**Q.** And the Median Fluorescence (mouse CD14 (mouse))?
**A.** 24

**Q.** Does B1 bind [1]?
**A.** no binding

**Q.** How did the IC50 [2] turn out when B2 was run?
**A.** > 2.5 µg/mL

Reference: patent publication US20030152576A1 (published 2003)
